Here are results for 6 substances from PMC7515726.

What all share (experiment): affinity purification with mass spectrometry
In assay [1] the target is Nuc1, acidic patch mutant nucleosome (hH2A.Dx10), biotinylated 185 bp 601 DNA (human) (UniProt P62807).
Assay [2] has as its target Nuc2, disk patch 2 mutant nucleosome (hH2A.Dx2, hH2B.Cx8), biotinylated 185 bp 601 DNA (human) (UniProt Q71DI3).
Assay [3] concerns the target Nuc3, disk patch 3 mutant nucleosome (hH3.2x10, hH4x24, hH2B.Cx9), biotinylated 185 bp 601 DNA (human) (UniProt P20671).

Sequence of RUVBL2 (Q9WTM5 whole entry): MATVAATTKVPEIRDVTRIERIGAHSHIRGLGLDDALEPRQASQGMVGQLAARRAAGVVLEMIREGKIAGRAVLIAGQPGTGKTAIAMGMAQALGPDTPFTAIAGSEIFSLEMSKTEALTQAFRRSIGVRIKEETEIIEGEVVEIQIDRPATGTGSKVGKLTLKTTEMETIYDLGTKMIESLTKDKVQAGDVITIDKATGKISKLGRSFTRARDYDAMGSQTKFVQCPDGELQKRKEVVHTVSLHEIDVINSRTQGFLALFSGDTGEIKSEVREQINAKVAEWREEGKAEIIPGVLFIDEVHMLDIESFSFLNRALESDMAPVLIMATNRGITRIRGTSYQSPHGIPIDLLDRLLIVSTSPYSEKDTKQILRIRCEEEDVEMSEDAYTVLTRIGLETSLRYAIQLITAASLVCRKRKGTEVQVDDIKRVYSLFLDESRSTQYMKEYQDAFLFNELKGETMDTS
Sequence of RUVBL1 (P60122 whole entry): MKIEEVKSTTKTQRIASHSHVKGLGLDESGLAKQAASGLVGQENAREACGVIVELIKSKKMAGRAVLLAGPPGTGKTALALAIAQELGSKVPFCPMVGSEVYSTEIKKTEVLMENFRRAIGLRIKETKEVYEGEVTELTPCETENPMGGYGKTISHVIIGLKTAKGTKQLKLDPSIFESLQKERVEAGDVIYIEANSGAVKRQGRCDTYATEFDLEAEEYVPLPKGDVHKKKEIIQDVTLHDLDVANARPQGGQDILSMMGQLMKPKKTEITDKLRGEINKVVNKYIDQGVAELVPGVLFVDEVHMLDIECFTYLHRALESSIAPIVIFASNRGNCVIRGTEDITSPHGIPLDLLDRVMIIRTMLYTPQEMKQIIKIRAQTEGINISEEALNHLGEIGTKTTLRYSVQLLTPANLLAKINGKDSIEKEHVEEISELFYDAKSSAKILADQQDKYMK
Sequence of RNF2 (RING finger protein 2) (Q9CQJ4 whole entry): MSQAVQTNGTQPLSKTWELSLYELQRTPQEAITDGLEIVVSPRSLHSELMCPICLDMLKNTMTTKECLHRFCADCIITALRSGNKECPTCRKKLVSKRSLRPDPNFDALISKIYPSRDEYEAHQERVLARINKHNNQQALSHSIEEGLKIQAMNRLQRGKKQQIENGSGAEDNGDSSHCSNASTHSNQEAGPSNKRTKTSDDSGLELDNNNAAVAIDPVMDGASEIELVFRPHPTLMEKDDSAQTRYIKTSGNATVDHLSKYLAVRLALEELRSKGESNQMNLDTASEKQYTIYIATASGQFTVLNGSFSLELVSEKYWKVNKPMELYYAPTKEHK

“DNMT1 DNA methyltransferase (from UniProt P13864 1-1620) (enzyme)” displayed a fold decrease in binding vs wild-type nucleosome in assay [1] of 1.72 fold.

Take “HMGN2 (high mobility group nucleosome-binding domain-containing protein 2) (from UniProt P09602 1-90) (natural protein)”: the figures for the fold decrease in binding vs wild-type nucleosome in assay [1] and in assay [2] were 27 fold and 13 fold, respectively.

In assay [1], “RNF2 (RING finger protein 2) (from UniProt Q9CQJ4 1-336) (natural protein)” gave a fold decrease in binding vs wild-type nucleosome of 1.5 fold.

As for “RUVBL1 (from UniProt P60122 1-456) (natural protein)”, the fold decrease in binding vs wild-type nucleosome in assay [3] is 1.33 fold.

Turning to “RUVBL2 (from UniProt Q9WTM5 1-463) (natural protein)”, the fold decrease in binding vs wild-type nucleosome in assay [3] stood at 1.38 fold.

As for “methylcytosine dioxygenase Tet1 (from UniProt Q3URK3 1-2039) (enzyme)”, in assay [1], the fold decrease in binding vs wild-type nucleosome turned out to be 1.8 fold.
